A short description of the data set: yeast display, Sf9 membrane polyspecificity reagent, FACS + sequencing; frameworks hold sequencing errors. The gist of the method:
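Nanobodies came from a synthetic yeast display library in Saccharomyces cerevisiae BJ5465, induced with galactose for 36–48 hours and stained for 1 hour at 4 °C with 10% biotinylated, detergent-solubilized Sf9 membrane reagent. Cells were enriched on streptavidin microbeads and then FACS-sorted, with low and high (top ~1%) gates set on anti-HA fluorescence for expression and streptavidin fluorescence for reagent binding. Each polyreactivity label reflects the gate a clone came from. Genes were amplified by colony PCR, sequenced by MiSeq 2 × 250 and filtered by CDR length.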
Take “QVQLVESGGGLVQAGGSLRLSCAASGRIFLYNVMGWYRQAPGKERELVAAISWSGTRTYYADSVKGRFTISRDNAKNTVYLQMNSLKPEDTAVYYCNACRYYRHDYWGQGTQVTVSS”: the “polyreactivity (PSR sort gate)” value is on record as “low polyreactivity”.

Take “QVQLVESGGGLVQAGGSLRLSCAASGRIFLYYAMGWYRQAPGKERELVATISSGGSTTYADSVKGRFTISRDNAKNTVYLQMNSLKPEDTAVYYCATQVPGYSGRYDYWGQGTQVTVSS”: the “polyreactivity (PSR sort gate)” value is reported as “low polyreactivity”.

Take “QVQLVESGGGLVQAGGSLRLSCAASGRIFLYYTMGWYRQAPGKERELVADITWRGGYTYYADSVKGRFTISRDNAKNTVYLQMNSLKPQDTAVYYFNAVSVSYKRSDYWGQGTQVTVSS”: the “polyreactivity (PSR sort gate)” value was “low polyreactivity”.

Consider “QVQLVESGGGLVQAGGSLRLSCAASGRIFNAYAMGWYRQAPGKERELVAAITDDGGTNYADSVKGRFTISRDNAKNTVYLQMNSLKPEDTAVYYCAATYLIGYYYVWEYDYWGQGTQVTVSS”, for which the “polyreactivity (PSR sort gate)” value is recorded as “low polyreactivity”.

For the sequence “QVQLVESGGGLVQAGGSLRLSCAASGRIFNAYAMGWYRQAPGKERELVATISWRTGSTYYADSVKGRFTISRDNAKNTVYLQINSLKPEDTAVYYCNAKVGSYGAQGYRFAYNYWGQGTQVTVSS”, the “polyreactivity (PSR sort gate)” value is on record as “high polyreactivity”.

With “QVQLVESGGGLVQAGGSLRLSCAASGRIFNDYTMGWYRPAPGKERELVAAITNRDTSTSYADSVKGRFTISRDNAKNTVYLQMNSLKPEDTAVYYCNAQQVIVVYRPGDYWGQGTQVTVSS”, the “polyreactivity (PSR sort gate)” value is recorded as “low polyreactivity”.

As to “QVQLVESGGGLVQAGGSLRLSCAASGRIFNFYAMGWYRQAPGKEWELVAAITNGGGTKYADSVKGRFTISRDNAKNTVYLQMNSLKPEDTAVYYCAARYYRRQRGQTSHSRFGYWGQGTQVTVSS”, the “polyreactivity (PSR sort gate)” value was “high polyreactivity”.

Take “QVQLVESGGGLVQAGGSLRLSCAASGRIFNIYAMGWYRQAPGKERELVAAISVSGTRTYYADSVKGRFTISRDNAKNTVYLQMNSLKPEDTAVYYCAADSYGGDWTEHMYYWGQGTQVTVSS”: the “polyreactivity (PSR sort gate)” value is reported as “low polyreactivity”.

With “QVQLVESGGGLVQAGGSLRLSCAASGRIFNKYVMGWYRQAPGKERELVAAISGRGGSTYYADYVKGRFTISRDNAKNTVYLQMNSLKPEDTAVYYCAARYGYYTSDYKYYDWGQGTQVTVSS”, the “polyreactivity (PSR sort gate)” value is listed as “high polyreactivity”.

With “QVQLVESGGGLVQAGGSLRLSCAASGRIFNPYAMGWYRKAPGKERELVAAISRGGRTYYADSVKGRFTISRDNAKNTVYLQMNSLKPEDTAVYYCAKLPSRRWAYDYWGQGTQVTVSS”, the “polyreactivity (PSR sort gate)” value is listed as “high polyreactivity”.

Turning to “QVQLVESGGGLVQAGGSLRLSCAASGRIFNQYGMGWYRPAPGKERELVAAIRSGDSTNYADSVKGRFTISRDNAKNTVELQMNSLKPEDTAVYYCARDRPGDYAGYDYWGQGTQVTVSS”, the “polyreactivity (PSR sort gate)” value was “low polyreactivity”.

As for “QVQLVESGGGLVQAGGSLRLSCAASGRIFNQYGMGWYRPAPGKERELVAAIRYGDSTNYADSVKGRFTISRDNAKNTVYLQMNSLKPEDTAVYYCARDPAGDYAGYDYWGQGTQVTVSS”, the “polyreactivity (PSR sort gate)” value is recorded as “low polyreactivity”.

Turning to “QVQLVESGGGLVQAGGSLRLSCAASGRIFNRYAMGWYRQAPGKEREFVAGITWNGGSTYYADSVKGRFTISRDNAKNTVYLQMNSLKPEDTAVYYCAATHYYYGTSRYDYWGQGTQVTVSS”, the “polyreactivity (PSR sort gate)” value is recorded as “high polyreactivity”.

For “QVQLVESGGGLVQAGGSLRLSCAASGRIFNSYAMGWSRQAPGNERELVAAISSGGSTYYADSVKGRFTISRDNAKNTVYLQMNSLKPEDTAVYYCAARIWTGRGRKLGYGYDYWGQGTQVTVSS”, the “polyreactivity (PSR sort gate)” value is listed as “low polyreactivity”.

Regarding “QVQLVESGGGLVQAGGSLRLSCAASGRIFNVYAMGWYRPAPGTERELVAAIRRRGDRTYYADSVKGRFTLSRDNAKNTVYLQMNSLNPEDTADYYCAKSQSAKGGYDYWGQGTQVTVSS”, the “polyreactivity (PSR sort gate)” value is given as “high polyreactivity”.

“QVQLVESGGGLVQAGGSLRLSCAASGRIFNYNAMGWYRQAPGKERELVAAIDWSGGRTYYADSVKGRFTISRDNAKNTVYLQMNSLKPEDTAVYYCNTVGYSLRLRTGGYWGQGTQVTVSS”: the “polyreactivity (PSR sort gate)” value is listed as “high polyreactivity”.

With “QVQLVESGGGLVQAGGSLRLSCAASGRIFNYNAMGWYRQAPGKERELVATITRGGNTYYADSVKGRFTISRDNAKNTVYLQMNSLKPEDTAVYYCNAAWWKVSYVRQKYYYWGQGTQVTVSS”, the “polyreactivity (PSR sort gate)” value was “high polyreactivity”.

Turning to “QVQLVESGGGLVQAGGSLRLSCAASGRIFNYNAMGWYRQAPGKERELVATITYSDATTYYADSVKGRFTISRDNAKITVYLQMNSLKPEDTAVYYCNAPSRSYDRYISAGRRYDYWGQGTQVTVSS”, the “polyreactivity (PSR sort gate)” value was “low polyreactivity”.

For the sequence “QVQLVESGGGLVQAGGSLRLSCAASGRIFNYNAMGWYRQAPGKERELVAVITSGDSTNYADSVKGRFTISRDNAKNTVYLQMNSLKPVDTAVYYCAAEYYSIRYGPNSIEVYGMDYWGQGTQVTVSS”, the “polyreactivity (PSR sort gate)” value is “low polyreactivity”.

As for “QVQLVESGGGLVQAGGSLRLSCAASGRIFPAYAMGWYRQAPGKERELVAAITWTGGRTYYADSVKGRFTISRDNAKNSFYLQMNILKPEDTAVYYCAKAPARSRGYEYWGQGTQVTVSS”, the “polyreactivity (PSR sort gate)” value was “low polyreactivity”.

Turning to “QVQLVESGGGLVQAGGSLRLSCAASGRIFPAYVMGWYRQAPVKERELVATIDNGGGTYYADSVKGRFTISRDNAKNTVYLQMNSLKPEDTAVYYCARDRHVRWGLKMDYWGLGTQVTVSS”, the “polyreactivity (PSR sort gate)” value was “low polyreactivity”.

In the case of “QVQLVESGGGLVQAGGSLRLSCAASGRIFPDNAMGWYRQAPGKERELVASITSGASTNYADSVKGRFTISRDNAKNTVYLQMNSLKPEDTAVYYCAAVTYAQYRRFDYWGQGTQVTVSS”, the “polyreactivity (PSR sort gate)” value was “high polyreactivity”.

In the case of “QVQLVESGGGLVQAGGSLRLSCAASGRIFPDYDMGWYRQAPGKERELVAAITQRGGSTYADSVKGRFTISRDNAKNTVYLQMNSLKPEDTAVYYCAREYYEGYEYWGQGTQVTVSS”, the “polyreactivity (PSR sort gate)” value is listed as “low polyreactivity”.

For the sequence “QVQLVESGGGLVQAGGSLRLSCAASGRIFPDYDMGWYRQAPGKERELVASISTRGGSTYADSVKGRFTISRDNAKNTVYLQMNSLKPEDTAVYYCATDGWKQSAYDYWGQGTQVTVSS”, the “polyreactivity (PSR sort gate)” value is reported as “low polyreactivity”.

“QVQLVESGGGLVQAGGSLRLSCAASGRIFPEYTMGWYRQAPGKERELVAAISKRGSSTNYADSVKGRFTISRDNAKNTVYLQMNSLKPEDTAVYYCAARGYTLSYVDMYYWGQGTQVIVSS”: the “polyreactivity (PSR sort gate)” value is “high polyreactivity”.

“QVQLVESGGGLVQAGGSLRLSCAASGRIFPFNAMGWYRQAPGKERELVAAITSSGGRTYYADSVKGRFTISRDNAKNTVYLQMNSLKPEDTAVYYCAATLVRRARSGPMGYWGQGTQVTVSS”: the “polyreactivity (PSR sort gate)” value is “high polyreactivity”.

In the case of “QVQLVESGGGLVQAGGSLRLSCAASGRIFPFNAMGWYRQAPGKERELVAVITWDGGSTYYADSVKGRFTISRDNAKNTVYLQMNSLKPEDTAVYYCAADIRRYYPGYEYWGQGTQVTVSS”, the “polyreactivity (PSR sort gate)” value is listed as “low polyreactivity”.

As for “QVQLVESGGGLVQAGGSLRLSCAASGRIFPFYAMGWYRPATWIQRELVAAITSSGGRTYYADSVKGRFTISRDIAKNTVYLQMNSLKPEETAVYYCAAGHGCYYRYFSQRDYWGQGTQVTVSS”, the “polyreactivity (PSR sort gate)” value is on record as “low polyreactivity”.

On to “QVQLVESGGGLVQAGGSLRLSCAASGRIFPFYAMGWYRQAPGKERELVAAITSSGGRTYYADSVKGRFTISRDNAKNTVYLQMNSLKPEDTAVYYCAAGHGGYYRYFSQRDYWGQGTQVTVSS”, for which the “polyreactivity (PSR sort gate)” value was “low polyreactivity”.

On to “QVQLVESGGGLVQAGGSLRLSCAASGRIFPFYDMGWYRQAPGKERELVAAITSGTGTYYADSVKGRFTISRDNAKNTVYLQIYSLKPEDTAVYYCNARRYLRGYWGQGTQVTVSS”, for which the “polyreactivity (PSR sort gate)” value is “low polyreactivity”.

As to “QVQLVESGGGLVQAGGSLRLSCAASGRIFPFYVMGWDRQAPGKERELVATINWSGGSTYYADSVKGRFTISRDNAKNTLYLQMNSLKPEDTAVYYCNAAPSDDYDYWGQGTQVTVSS”, the “polyreactivity (PSR sort gate)” value is on record as “low polyreactivity”.

Consider “QVQLVESGGGLVQAGGSLRLSCAASGRIFPGNPMGWYRQAPGKERELVAGISFSGGRTYYADSVKGRFTISRDNAKNTVYLQMNSLKPEDTAVYYCAADAQAPPGGFKEYDYWGQGTQVTVSS”, for which the “polyreactivity (PSR sort gate)” value is “low polyreactivity”.

As for “QVQLVESGGGLVQAGGSLRLSCAASGRIFPGNTMGWYRQAPGKERELVAAITRGGSTSYADSVKGRFTISRDNAKNTVYLQMNSLKPEDTAVYYCATRTHGEGTRRDSWGQGTQVTVSS”, the “polyreactivity (PSR sort gate)” value was “low polyreactivity”.

For the sequence “QVQLVESGGGLVQAGGSLRLSCAASGRIFPGYAMGWYRQAPGKERELVAAISGGGGRTYYADSVKGRFTISRDNAKNTVYLQMNSLKPEDTAVYYCAADTTPPRGFDYWGQGTQVTVSS”, the “polyreactivity (PSR sort gate)” value is listed as “high polyreactivity”.

Turning to “QVQLVESGGGLVQAGGSLRLSCAASGRIFPHYSMGWYRQAPGKERELVAAISWSGSSTYYADSVKGRFTISRDNAKNTVYLQMNSLKPEDTAVYYCNAVRRGIGYDYGYWGQGTQVTVSS”, the “polyreactivity (PSR sort gate)” value is “high polyreactivity”.

With “QVQLVESGGGLVQAGGSLRLSCAASGRIFPKNAMGWYRQAPGKERELVASISSAGSTNYADSVKGRFTISRDNAKNTVYLQMNSLKPEDTAVYYCAAYHQSFGGVKGYYWGQGTQVTVSS”, the “polyreactivity (PSR sort gate)” value is given as “high polyreactivity”.

Turning to “QVQLVESGGGLVQAGGSLRLSCAASGRIFPKYAMGWYRQAPGKERELVAGITKRVGSTYYADSVKGRFTISRDNAKNTVYLQMNSLKPEDTAVYYCAKRWVSRTHGYWGQGTQVTVSS”, the “polyreactivity (PSR sort gate)” value is “low polyreactivity”.

In the case of “QVQLVESGGGLVQAGGSLRLSCAASGRIFPKYAMVWYRQAPGKERELVAGITKRVGSTYYADSVKGRFTISRDNAKNTVYLQMNSLKPEDTAVYYCAADYRYLIDYLDPEKEGMDYWGQGTQVTVSS”, the “polyreactivity (PSR sort gate)” value is given as “low polyreactivity”.

With “QVQLVESGGGLVQAGGSLRLSCAASGRIFPPNAMGWYRQAPGKERELVAGITSSGDTTYYADSVKGRFTISRDNAKNTVYLQMNSLKPEDTAVYYCAKDEVYADDRSALFDYWGQGTQVTVSS”, the “polyreactivity (PSR sort gate)” value was “low polyreactivity”.

In the case of “QVQLVESGGGLVQAGGSLRLSCAASGRIFPPYAMGWYRQAPGKERELVAAISCGGSRTYYADSVKGRFTISRDNAKNTVYLQMNSLKPEDTAVYYCAAKNYLAKSGDYWGQGTQVTVSS”, the “polyreactivity (PSR sort gate)” value was “high polyreactivity”.

For “QVQLVESGGGLVQAGGSLRLSCAASGRIFPQYAMGWYRQAPGKERELVAAISVSGTRTYYADSVKGRFTISRDNAKNTVYLQMNSLKPEDTAVYYCNTLGKYDGFYYWGQGTQVTVSS”, the “polyreactivity (PSR sort gate)” value was “high polyreactivity”.

The record behind these values is the nanobody polyreactivity screen of Harvey et al. (2022).
